{"source": "paper PMC6136348", "about": "“In the quest for new targets for pathogen eradication: the adenylosuccinate synthetase from the bacterium Helicobacter pylori” (Journal of Enzyme Inhibition and Medicinal Chemistry, 2018)", "key": {"[1]": {"substrate": "N[C@@H](CC(=O)O)C(=O)O", "test": "Michaelis-Menten kinetics of the purified enzyme (Km)", "type": "biochemical, Helicobacter pylori", "settings": "Mg2+"}, "[2]": {"substrate": "Nc1nc2c(ncn2[C@@H]2O[C@H](COP(=O)(O)OP(=O)(O)OP(=O)(O)O)[C@@H](O)[C@H]2O)c(=O)[nH]1", "test": "Michaelis-Menten kinetics of the purified enzyme (Km)", "type": "biochemical, Helicobacter pylori", "settings": "Mg2+"}}, "data": [{"protein": "adenylosuccinate synthetase (AdSS) (Helicobacter pylori 26695) (protein, recombinant protein expressed from pET21b-HPpurA) MADVVVGIQWGDEGKGKIVDRIAKDYDFVVRYQGGHNAGHTIVHKGVKHSLHLMPSGVLYPKCKNIISSAVVVSVKDLCEEISAFEDLENRLFVSDRAHVILPYHAKKDAFKEKSQNIGTTKKGIGPCYEDKMARSGIRMGDLLDDKILEEKLNAHFKAIEPFKKAYDLGENYEKDLMGYFKTYAPKICPFIKDTTSMLIEANQKGEKILLEGAQGTLLDIDLGTYPFVTSSNTTSASACVSTGLNPKAINEVIGITKAYSTRVGNGPFPSEDTTPMGDHLRTKGAEFGTTTKRPRRCGWLDLVALKYACALNGCTQLALMKLDVLDGIDAIKVCVAYERKGERLEIFPSDLKDCVPIYQTFKGWEKSVGVRKLDDLEPNVREYIRFIEKEVGVKIRLISTSPEREDTIFL", "values": [{"measurement": "Km", "setting": "[1]", "result": "125.4 ± 7.7", "unit": "µM"}, {"measurement": "Vmax", "setting": "[1]", "result": 1.1, "unit": "µmol/min/mg"}, {"measurement": "Km", "setting": "[2]", "result": "8.7 ± 0.6", "unit": "µM"}, {"measurement": "Vmax", "setting": "[2]", "result": 1.42, "unit": "µmol/min/mg"}]}]}
